Reference: paper doi:10.1101/2025.07.31.667833, “Coiled-coil-mediated phase separation of Spef1 for non-centrosomal microtubule organization and function” (bioRxiv, 2025)
Positions count from the first letter of the chain named. In names and notes the source's numbering stands.

B1: full-length wild-type Spef1 (mouse) (natural protein, UniProt Q99JL1 1-234, looked up)
chain: MESSVDEEALHQLYLWVDNIPLSRPKRNLSRDFSDGVLVAELIKFYFPKMVEMHNYVPANSLQQKLSNWGHLNRKVLNKLNFSVPDDVMRKIAQCSPGVVELVLIPLRQRLEERQRRQKLGVGSLQELAPQDSSGYMDMGLPQKVRGEGAPALGEQLREGRPLASRPPGYNQALQGDPSFVLQIAEKEQELLASQETVQVLQMKVKRLEHLLQLKNVRIDDLSRRLQQAERKQR
notes: Spef1 (sperm flagellar protein 1, CLAMP), mouse, full length; also called WT; CLAMP; source: E. coli BL21(DE3), purified (Ni2+-Sepharose, size-exclusion chromatography)
B2: Spef1 K206A/R207A mutant (full-length) (natural protein, mouse, UniProt Q99JL1 1-234, looked up)
chain: B1 chain with K206A, R207A
notes: Spef1, mouse, full length, with K206A and R207A on the coiled-coil surface; also called KR; charge-changing mutant; source: E. coli BL21(DE3), purified (Ni2+-Sepharose, size-exclusion chromatography)
B3: Spef1 E186A/E188A/E190A mutant (full-length) (natural protein, mouse, UniProt Q99JL1 1-234, looked up)
chain: B1 chain with E186A, E188A, E190A
notes: Spef1, mouse, full length, with E186A, E188A and E190A on the coiled-coil surface; also called charge-changing mutant; source: E. coli BL21(DE3), purified (Ni2+-Sepharose, size-exclusion chromatography)

Biological target: the molecule itself
Assay: SEC-MALS; ~1 mg/ml protein in 50 mM Tris-HCl pH 8.0, 500 mM NaCl, 1 mM EDTA, 1 mM DTT; WTC SEC column, 18-angle light scattering; oligomeric state (dimer or monomer)

| Protein | stoichiometry N |
| --- | --- |
| B1 | 2 |
| B2 | 2 |
| B3 | 2 |
